Experimental findings from patent US20260015399A1 (Boehringer Ingelheim, published 2026) are described below.

*1 amine or outer side, *2 acyl side, *3 side chain or, on linkers, in order; H or OH if unused. Side-chain parts run from the residue outwards. The star is where a group is joined. C18 diacid = O=C(O)CCCCCCCCCCCCCCCCC(=O)*; γGlu = O=C(O)[C@H](CCC(=O)[*:2])N[*:1]; Isovaleryl = CC(C)CC(=O)*; Ahx = NCCCCCC(=O)O

B1: Compound 17 (peptide)
peptide: Isovaleryl-APEK([Ahx-γGlu-C18 diacid])PEEDATPEEIQRYYPSLRHYYNWLTRQRY-NH2
SMILES: CC[C@H](C)[C@H](NC(=O)[C@H](CCC(=O)O)NC(=O)[C@H](CCC(=O)O)NC(=O)[C@@H]1CCCN1C(=O)[C@@H](NC(=O)[C@H](C)NC(=O)[C@H](CC(=O)O)NC(=O)[C@H](CCC(=O)O)NC(=O)[C@H](CCC(=O)O)NC(=O)[C@@H]1CCCN1C(=O)[C@H](CCCCNC(=O)CCCCCNC(=O)CC[C@H](NC(=O)CCCCCCCCCCCCCCCCC(=O)O)C(=O)O)NC(=O)[C@H](CCC(=O)O)NC(=O)[C@@H]1CCCN1C(=O)[C@H](C)NC(=O)CC(C)C)[C@@H](C)O)C(=O)N[C@@H](CCC(N)=O)C(=O)N[C@@H](CCCNC(=N)N)C(=O)N[C@@H](Cc1ccc(O)cc1)C(=O)N[C@@H](Cc1ccc(O)cc1)C(=O)N1CCC[C@H]1C(=O)N[C@@H](CO)C(=O)N[C@@H](CC(C)C)C(=O)N[C@@H](CCCNC(=N)N)C(=O)N[C@@H](Cc1c[nH]cn1)C(=O)N[C@@H](Cc1ccc(O)cc1)C(=O)N[C@@H](Cc1ccc(O)cc1)C(=O)N[C@@H](CC(N)=O)C(=O)N[C@@H](Cc1c[nH]c2ccccc12)C(=O)N[C@@H](CC(C)C)C(=O)N[C@H](C(=O)N[C@@H](CCCNC(=N)N)C(=O)N[C@@H](CCC(N)=O)C(=O)N[C@@H](CCCNC(=N)N)C(=O)N[C@@H](Cc1ccc(O)cc1)C(N)=O)[C@@H](C)O
B2: Compound 24 (peptide)
peptide: Isovaleryl-APEK([Ahx-γGlu-C18 diacid])PEEDSSPEELQRYYVALRHYYNWLTRQRY-NH2
SMILES: CC(C)CC(=O)N[C@@H](C)C(=O)N1CCC[C@H]1C(=O)N[C@@H](CCC(=O)O)C(=O)N[C@@H](CCCCNC(=O)CCCCCNC(=O)CC[C@H](NC(=O)CCCCCCCCCCCCCCCCC(=O)O)C(=O)O)C(=O)N1CCC[C@H]1C(=O)N[C@@H](CCC(=O)O)C(=O)N[C@@H](CCC(=O)O)C(=O)N[C@@H](CC(=O)O)C(=O)N[C@@H](CO)C(=O)N[C@@H](CO)C(=O)N1CCC[C@H]1C(=O)N[C@@H](CCC(=O)O)C(=O)N[C@@H](CCC(=O)O)C(=O)N[C@@H](CC(C)C)C(=O)N[C@@H](CCC(N)=O)C(=O)N[C@@H](CCCNC(=N)N)C(=O)N[C@@H](Cc1ccc(O)cc1)C(=O)N[C@@H](Cc1ccc(O)cc1)C(=O)N[C@H](C(=O)N[C@@H](C)C(=O)N[C@@H](CC(C)C)C(=O)N[C@@H](CCCNC(=N)N)C(=O)N[C@@H](Cc1c[nH]cn1)C(=O)N[C@@H](Cc1ccc(O)cc1)C(=O)N[C@@H](Cc1ccc(O)cc1)C(=O)N[C@@H](CC(N)=O)C(=O)N[C@@H](Cc1c[nH]c2ccccc12)C(=O)N[C@@H](CC(C)C)C(=O)N[C@H](C(=O)N[C@@H](CCCNC(=N)N)C(=O)N[C@@H](CCC(N)=O)C(=O)N[C@@H](CCCNC(=N)N)C(=O)N[C@@H](Cc1ccc(O)cc1)C(N)=O)[C@@H](C)O)C(C)C
B3: Compound 22 (peptide)
peptide: Isovaleryl-APEK([Ahx-γGlu-C18 diacid])PEEDPTPEELQRYYVSLRHYYNWLTRQRY-NH2
SMILES: CC(C)CC(=O)N[C@@H](C)C(=O)N1CCC[C@H]1C(=O)N[C@@H](CCC(=O)O)C(=O)N[C@@H](CCCCNC(=O)CCCCCNC(=O)CC[C@H](NC(=O)CCCCCCCCCCCCCCCCC(=O)O)C(=O)O)C(=O)N1CCC[C@H]1C(=O)N[C@@H](CCC(=O)O)C(=O)N[C@@H](CCC(=O)O)C(=O)N[C@@H](CC(=O)O)C(=O)N1CCC[C@H]1C(=O)N[C@H](C(=O)N1CCC[C@H]1C(=O)N[C@@H](CCC(=O)O)C(=O)N[C@@H](CCC(=O)O)C(=O)N[C@@H](CC(C)C)C(=O)N[C@@H](CCC(N)=O)C(=O)N[C@@H](CCCNC(=N)N)C(=O)N[C@@H](Cc1ccc(O)cc1)C(=O)N[C@@H](Cc1ccc(O)cc1)C(=O)N[C@H](C(=O)N[C@@H](CO)C(=O)N[C@@H](CC(C)C)C(=O)N[C@@H](CCCNC(=N)N)C(=O)N[C@@H](Cc1c[nH]cn1)C(=O)N[C@@H](Cc1ccc(O)cc1)C(=O)N[C@@H](Cc1ccc(O)cc1)C(=O)N[C@@H](CC(N)=O)C(=O)N[C@@H](Cc1c[nH]c2ccccc12)C(=O)N[C@@H](CC(C)C)C(=O)N[C@H](C(=O)N[C@@H](CCCNC(=N)N)C(=O)N[C@@H](CCC(N)=O)C(=O)N[C@@H](CCCNC(=N)N)C(=O)N[C@@H](Cc1ccc(O)cc1)C(N)=O)[C@@H](C)O)C(C)C)[C@@H](C)O
B4: Compound 19 (peptide)
peptide: Isovaleryl-APEK([Ahx-γGlu-C18 diacid])PEEDATEEELQRYYVSLRHYYNWLTRQRY-NH2
SMILES: CC(C)CC(=O)N[C@@H](C)C(=O)N1CCC[C@H]1C(=O)N[C@@H](CCC(=O)O)C(=O)N[C@@H](CCCCNC(=O)CCCCCNC(=O)CC[C@H](NC(=O)CCCCCCCCCCCCCCCCC(=O)O)C(=O)O)C(=O)N1CCC[C@H]1C(=O)N[C@@H](CCC(=O)O)C(=O)N[C@@H](CCC(=O)O)C(=O)N[C@@H](CC(=O)O)C(=O)N[C@@H](C)C(=O)N[C@H](C(=O)N[C@@H](CCC(=O)O)C(=O)N[C@@H](CCC(=O)O)C(=O)N[C@@H](CCC(=O)O)C(=O)N[C@@H](CC(C)C)C(=O)N[C@@H](CCC(N)=O)C(=O)N[C@@H](CCCNC(=N)N)C(=O)N[C@@H](Cc1ccc(O)cc1)C(=O)N[C@@H](Cc1ccc(O)cc1)C(=O)N[C@H](C(=O)N[C@@H](CO)C(=O)N[C@@H](CC(C)C)C(=O)N[C@@H](CCCNC(=N)N)C(=O)N[C@@H](Cc1c[nH]cn1)C(=O)N[C@@H](Cc1ccc(O)cc1)C(=O)N[C@@H](Cc1ccc(O)cc1)C(=O)N[C@@H](CC(N)=O)C(=O)N[C@@H](Cc1c[nH]c2ccccc12)C(=O)N[C@@H](CC(C)C)C(=O)N[C@H](C(=O)N[C@@H](CCCNC(=N)N)C(=O)N[C@@H](CCC(N)=O)C(=O)N[C@@H](CCCNC(=N)N)C(=O)N[C@@H](Cc1ccc(O)cc1)C(N)=O)[C@@H](C)O)C(C)C)[C@@H](C)O
B5: Compound 25 (peptide)
peptide: Isovaleryl-APEK([Ahx-γGlu-C18 diacid])PEADATPEELQRYYISLRHYYNWLTRQRY-NH2
SMILES: CC[C@H](C)[C@H](NC(=O)[C@H](Cc1ccc(O)cc1)NC(=O)[C@H](Cc1ccc(O)cc1)NC(=O)[C@H](CCCNC(=N)N)NC(=O)[C@H](CCC(N)=O)NC(=O)[C@H](CC(C)C)NC(=O)[C@H](CCC(=O)O)NC(=O)[C@H](CCC(=O)O)NC(=O)[C@@H]1CCCN1C(=O)[C@@H](NC(=O)[C@H](C)NC(=O)[C@H](CC(=O)O)NC(=O)[C@H](C)NC(=O)[C@H](CCC(=O)O)NC(=O)[C@@H]1CCCN1C(=O)[C@H](CCCCNC(=O)CCCCCNC(=O)CC[C@H](NC(=O)CCCCCCCCCCCCCCCCC(=O)O)C(=O)O)NC(=O)[C@H](CCC(=O)O)NC(=O)[C@@H]1CCCN1C(=O)[C@H](C)NC(=O)CC(C)C)[C@@H](C)O)C(=O)N[C@@H](CO)C(=O)N[C@@H](CC(C)C)C(=O)N[C@@H](CCCNC(=N)N)C(=O)N[C@@H](Cc1c[nH]cn1)C(=O)N[C@@H](Cc1ccc(O)cc1)C(=O)N[C@@H](Cc1ccc(O)cc1)C(=O)N[C@@H](CC(N)=O)C(=O)N[C@@H](Cc1c[nH]c2ccccc12)C(=O)N[C@@H](CC(C)C)C(=O)N[C@H](C(=O)N[C@@H](CCCNC(=N)N)C(=O)N[C@@H](CCC(N)=O)C(=O)N[C@@H](CCCNC(=N)N)C(=O)N[C@@H](Cc1ccc(O)cc1)C(N)=O)[C@@H](C)O
B6: Compound 20 (peptide)
peptide: Isovaleryl-APAK([Ahx-γGlu-C18 diacid])PEEDASPEELQRYQVSLRHYYNWLTRQRY-NH2
SMILES: CC(C)CC(=O)N[C@@H](C)C(=O)N1CCC[C@H]1C(=O)N[C@@H](C)C(=O)N[C@@H](CCCCNC(=O)CCCCCNC(=O)CC[C@H](NC(=O)CCCCCCCCCCCCCCCCC(=O)O)C(=O)O)C(=O)N1CCC[C@H]1C(=O)N[C@@H](CCC(=O)O)C(=O)N[C@@H](CCC(=O)O)C(=O)N[C@@H](CC(=O)O)C(=O)N[C@@H](C)C(=O)N[C@@H](CO)C(=O)N1CCC[C@H]1C(=O)N[C@@H](CCC(=O)O)C(=O)N[C@@H](CCC(=O)O)C(=O)N[C@@H](CC(C)C)C(=O)N[C@@H](CCC(N)=O)C(=O)N[C@@H](CCCNC(=N)N)C(=O)N[C@@H](Cc1ccc(O)cc1)C(=O)N[C@@H](CCC(N)=O)C(=O)N[C@H](C(=O)N[C@@H](CO)C(=O)N[C@@H](CC(C)C)C(=O)N[C@@H](CCCNC(=N)N)C(=O)N[C@@H](Cc1c[nH]cn1)C(=O)N[C@@H](Cc1ccc(O)cc1)C(=O)N[C@@H](Cc1ccc(O)cc1)C(=O)N[C@@H](CC(N)=O)C(=O)N[C@@H](Cc1c[nH]c2ccccc12)C(=O)N[C@@H](CC(C)C)C(=O)N[C@H](C(=O)N[C@@H](CCCNC(=N)N)C(=O)N[C@@H](CCC(N)=O)C(=O)N[C@@H](CCCNC(=N)N)C(=O)N[C@@H](Cc1ccc(O)cc1)C(N)=O)[C@@H](C)O)C(C)C

This assay concerns the target T1, human NPY2 receptor (human, UniProt P49146 1-381).
T1 construct: whole, on cells; also called hNPY2-R; hNPY2R
T1 sequence (looked up): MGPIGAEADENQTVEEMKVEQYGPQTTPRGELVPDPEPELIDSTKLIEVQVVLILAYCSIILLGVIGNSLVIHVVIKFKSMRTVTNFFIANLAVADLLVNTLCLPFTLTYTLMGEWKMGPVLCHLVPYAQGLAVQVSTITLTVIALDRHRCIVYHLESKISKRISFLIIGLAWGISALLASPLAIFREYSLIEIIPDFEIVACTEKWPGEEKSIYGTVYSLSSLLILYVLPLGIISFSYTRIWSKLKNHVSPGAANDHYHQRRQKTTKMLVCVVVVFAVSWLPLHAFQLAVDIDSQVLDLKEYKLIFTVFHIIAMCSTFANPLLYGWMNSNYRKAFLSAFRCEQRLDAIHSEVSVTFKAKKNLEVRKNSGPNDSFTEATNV
The experiment in a line: RLB: displacement of 125I-PYY(1-36) from hNPY2R membranes. The method, then:
The filtration RLB assay was carried out in 96-well plates in a final volume of 100 μl per well. Freeze-dried test peptides were dissolved in 100% dimethyl sulfoxide (DMSO) to stock solutions of 1 mM and serial dilutions were performed in assay buffer (50 mM HEPES, 5 mM MgCl₂, 1 mM CaCl₂), pH 7.4) containing 0.2% ovalbumin. […] Next, 80 μL membranes (HTS066M, ChemiSCREEN™ Human Neuropeptide Y2 Receptor Membrane Preparation, CHEMICON) were added to each well to give a final protein concentration of 0.5 μg/well. The plates were sealed and incubated at room temperature for 2 hours in a plate shaker set at 400 rpm. The incubation was stopped by vacuum filtration onto 0.5% polyethylene amine (PEI) presoaked GF/C filters using a 96-well FilterMate™ harvester (Perkin Elmer) followed by four washes with 300 μl/well ice-cold wash buffer (50 mM HEPES, 500 mM NaCl, pH7.4). Filter plates were then dried for 60 min at room temperature and the bottom of the plates was sealed with backing tape UniFilter-96. Finally, 50 μl/well scintillation counter cocktail (Microscint20, Packard) was added and the radioactivity was counted in the Packard TopCount NXT scintillation counter. IC₅₀ values (the half maximal inhibitory concentration of the agonist) were calculated by nonlinear regression analysis of sigmoidal dose-response curves.
What is called Ki is a measure of affinity in units of concentration, obtained from inhibition or displacement. High values mean weaker binding, low ones tighter binding. Molecule B1 showed a Ki of 24.6 nM.

In the case of B2, the Ki is 3.39 nM.

In the case of B3, the affinity, expressed as Ki, was 4.98 nM.

As to B4, the affinity corresponds to a Ki of 9.63 nM.

Molecule B5 returned a Ki of 1.55 nM.

Turning to B6, the Ki worked out at 2.41 nM.
